For this assay, the target named is T1, Aβ^1-40 amyloid peptide (human, UniProt P05067 672-711).
T1 construct: domain: Aβ^1-40; Plated on 96-well plates in ELISA and IRMA; also called Aβ^1-40 peptide; Aβ^1-40 aggregates
As to the kind of experiment: ELISA on plated Aβ^1-40, COS cell medium, detection with biotinylated 9E10 MAb. An excerpt:
FIG. 29. […] The mAβScFv binds to the amyloid peptide, and the 9E10 anti-c-myc MAb binds to the […] epitope fused to the carboxyl terminus of the protein (FIG. 9). The 9E10 MAb is biotinylated, which enables detection with a conjugate of streptavidin and peroxidase. Medium conditioned by COS cells that were transfected with pCD-mAβScFv produced a high signal in the assay, whereas medium from COS cells exposed only to Lipofectamine (LIPO) produced no signal.
The binding of the mAβScFv to the Aβ¹⁻⁴⁰ amyloid peptide was verified with a specific ELISA. The Aβ¹⁻⁴⁰ amyloid peptide was plated in 96-well plates, followed by the addition of the media conditioned by COS cells transfected with the pCD-mAβScFv plasmid and Lipofectamine-2000. The anti-A, ScFv contains a C-terminal 10-amino acid c-myc epitope, which is recognized by the 9E10 MAb (FIG. 29A). The 9E10 MAb is biotinylated, which enables quantitation of the […] binding to Aβ¹⁻⁴⁰ by a peroxidase detection system and A492 readings (FIG. 29A).
Background: An ELISA detects its analyte on a solid surface through an enzyme-linked reagent.

B1: mAβScFv, murine single chain Fv antibody against the Aβ peptide, secreted by COS cells transfected with pCD-mAβScFv (scFv)
scFv: QVQLQQSGAELVKPGATVKLSCKASGYSFNSHYIYWVKQRPGQGLEWIGEINPSNGAMNFNEKFKNKATLTVDKSSSTAYMQLSSLTSEDSAVYYCVRDPTSYWGQGTLVTVSAAKTTPKLEEGEFSEARVDIVMTQTPLSLPVSLGDQASISCRSSQSLVHSYGNTYLHWYLQKPGQSPKLLIYKVSNRFSGVPDRFSGSGSGTDFTLKISRVEAEDLGVYFCSQSTHVPYTFGGGTKLEIKRADAAAAGSEQKLISEEDL
notes: Tested as COS cell conditioned medium; No His tag in this construct; VL has Ile at position 2; also called anti-Aβ ScFv; anti-mAβScFv
Take B1: the binding result is recorded as “binds”.
